± gives the uncertainty stated by the source.
Experiment: self-splicing fitness, log relative to wild type (ln ratio); higher = more splicing; Tetrahymena group I intron in knt gene, E. coli kanamycin selection, DiMSum; sequences stand for … in CUCUCU…GGAGGGAAAAGUUAUCAGGCAUGCACCUGGUAGCUAGUCUUUAAACCAAUAGAUUGCAUCGGUUUAAAAGGCAAGACCGUCAAAUUGCGGGAAAGGGGUCAACAGCCGUUCAGUACCAAGUCUCAGGGGAAACUUUGAGAUGGCCUUGCAAAGGGUAUGGUAAUAAGCUGACGGACAUGGUCCUAACCACGCAGCCAAGUCCUAAGUCAACAGAUCUUCUGUUGAUAUGGAUGCAGUUCACAGACUAAAUGUCGGUCGGGGAAGAUGUAUUCUUCUCAUAAGAUAUAGUCGGACCUCUCCUUAAUGGGAGCUAGCGGAUGAAGUGAUGCAACACUGGAGCCGCUGGGAACUAAUUUGUAUGCGAAAGUAUAUUGAUUAGUUUUGGAGUACUCGUGGUCG
In short: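 Colonies from six replicate transformations of E. coli BL21(DE3) were pooled and amplicon-sequenced on an Illumina HiSeq 2500. The library placed an intron with all eight P1ex-region nucleotides randomised inside the knt kanamycin-resistance gene on pET-22b(+), and cells grew overnight at 37°C or 30°C on LB agar with or without 25 μg/mL kanamycin (plus 100 μg/mL carbenicillin, 50 μM IPTG, 0.2% rhamnose). Fitness is the DiMSum error-weighted combination of wild-type-normalised replicate fold changes, kanamycin versus none.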

Row | Sequence | self-splicing fitness (ln) (30 °C) | self-splicing fitness (ln) (37 °C)
1 | UCGAAGCAAUAUUACGUAUU | -2.99 ± 0.18 | -3.17 ± 0.31
2 | UCGAAGCAAUAUUACGUCUG | -0.0903 ± 0.069 | -0.194 ± 0.077
3 | UCGAAGCAAUAUUACGUGUG | -1.43 ± 0.061 | -0.757 ± 0.073
4 | UCGAAGCAAUAUUACGUUAG | -1.25 ± 0.1 | -1.35 ± 0.13
5 | UCGCAGCAAUAUUACGAACA | -1.65 ± 0.12 | 0.339 ± 0.13
6 | UCGCAGCAAUAUUACGAAUA | -2.57 ± 0.22 | -1.74 ± 0.16
7 | UCGCAGCAAUAUUACGAGCA | -1.25 ± 0.23 | -0.449 ± 0.27
8 | UCGCAGCAAUAUUACGAGCU | -3.14 ± 0.39 | -2.22 ± 0.26
9 | UCGCAGCAAUAUUACGAUGU | -2.15 ± 0.18 | -2.31 ± 0.28
10 | UCGCAGCAAUAUUACGAUUU | -3.55 ± 0.34 | -2.24 ± 0.17
11 | UCGCAGCAAUAUUACGCAAA | -2.05 ± 0.13 | -1.53 ± 0.11
12 | UCGCAGCAAUAUUACGCCCU | -1.18 ± 0.13 | -0.902 ± 0.15
13 | UCGCAGCAAUAUUACGCCGG | -2.67 ± 0.22 | -1.76 ± 0.38
14 | UCGCAGCAAUAUUACGGCCU | -0.665 ± 0.057 | 0.148 ± 0.076
15 | UCGCAGCAAUAUUACGGCGC | -1.87 ± 0.12 | -0.971 ± 0.17
16 | UCGCAGCAAUAUUACGGGAU | -3.64 ± 0.25 | -2.3 ± 0.18
17 | UCGCAGCAAUAUUACGGGUA | -1.78 ± 0.071 | -1.08 ± 0.052
18 | UCGCAGCAAUAUUACGGUCU | -3.22 ± 0.2 | -1.13 ± 0.12
19 | UCGCAGCAAUAUUACGGUGC | -4.1 ± 0.24 | -1.62 ± 0.15
20 | UCGCAGCAAUAUUACGUAAG | -1.4 ± 0.099 | -1.12 ± 0.11
21 | UCGCAGCAAUAUUACGUUCG | -0.961 ± 0.088 | -0.562 ± 0.094
22 | UCGGAGCAAUAUUACGACUG | -1.59 ± 0.31 | 0.217 ± 0.17
23 | UCGGAGCAAUAUUACGCUGA | -2.56 ± 0.29 | -2.16 ± 0.2
24 | UCGGAGCAAUAUUACGGAGG | -3.68 ± 0.46 | -1.98 ± 0.34
25 | UCGGAGCAAUAUUACGGCGU | -1.82 ± 0.22 | -0.847 ± 0.16
26 | UCGGAGCAAUAUUACGGGGU | -3.57 ± 0.29 | –

Row | Sequence | self-splicing fitness (ln) (30 °C) | self-splicing fitness (ln) (37 °C)
27 | UCGGAGCAAUAUUACGGUCA | -0.984 ± 0.18 | –
28 | UCGGAGCAAUAUUACGGUGG | -3.35 ± 0.12 | -2.01 ± 0.16
29 | UCGGAGCAAUAUUACGUGAG | -1.65 ± 0.096 | -1.01 ± 0.12
30 | UCGGAGCAAUAUUACGUGCU | – | -2.66 ± 0.27
31 | UCGGAGCAAUAUUACGUUAA | -2.69 ± 0.31 | -2.78 ± 0.32
32 | UCGUAGCAAUAUUACGAAAA | -2.3 ± 0.36 | -1.77 ± 0.46
33 | UCGUAGCAAUAUUACGAAAU | -3.8 ± 0.33 | -1.65 ± 0.26
34 | UCGUAGCAAUAUUACGACCG | -1.23 ± 0.18 | -0.438 ± 0.34
35 | UCGUAGCAAUAUUACGAGCG | -0.988 ± 0.14 | -1.13 ± 0.21
36 | UCGUAGCAAUAUUACGCACA | -2.52 ± 0.21 | -1.7 ± 0.2
37 | UCGUAGCAAUAUUACGCAUA | -1.57 ± 0.16 | -1.34 ± 0.21
38 | UCGUAGCAAUAUUACGCCAA | -3.89 ± 0.3 | -1.4 ± 0.17
39 | UCGUAGCAAUAUUACGCCUG | -0.246 ± 0.12 | 0.322 ± 0.13
40 | UCGUAGCAAUAUUACGCUGA | -2.45 ± 0.28 | -1.35 ± 0.15
41 | UCGUAGCAAUAUUACGGAGG | -2.53 ± 0.27 | -3.14 ± 0.3
42 | UCGUAGCAAUAUUACGGUAC | -4.6 ± 0.46 | -3.01 ± 0.34
43 | UCGUAGCAAUAUUACGGUAU | -2.96 ± 0.22 | -1.93 ± 0.28
44 | UCGUAGCAAUAUUACGGUUA | -1.39 ± 0.15 | -0.71 ± 0.12
45 | UCGUAGCAAUAUUACGUCAA | -2.24 ± 0.23 | -1.53 ± 0.15
46 | UCGUAGCAAUAUUACGUCAC | -1.39 ± 0.18 | -2 ± 0.38
47 | UCGUAGCAAUAUUACGUCGA | -2.49 ± 0.17 | -1.91 ± 0.15
48 | UCGUAGCAAUAUUACGUCGG | -1.49 ± 0.15 | -0.337 ± 0.17
49 | UCUAAGCAAUAUUACGAAAC | – | -2.6 ± 0.45
50 | UCUAAGCAAUAUUACGAACG | -1.64 ± 0.094 | -1.28 ± 0.11
51 | UCUAAGCAAUAUUACGAAUG | -1.16 ± 0.095 | -0.995 ± 0.12
52 | UCUAAGCAAUAUUACGACAA | -1.13 ± 0.11 | -1.33 ± 0.11

Row | Sequence | self-splicing fitness (ln) (30 °C) | self-splicing fitness (ln) (37 °C)
53 | UCUAAGCAAUAUUACGAGGG | -3.29 ± 0.47 | -2.61 ± 0.27
54 | UCUAAGCAAUAUUACGAUCA | -0.876 ± 0.21 | -0.379 ± 0.14
55 | UCUAAGCAAUAUUACGAUGA | -0.162 ± 0.058 | 0.0109 ± 0.072
56 | UCUAAGCAAUAUUACGCCAG | -1.18 ± 0.12 | -0.166 ± 0.16
57 | UCUAAGCAAUAUUACGCCCC | – | -1.6 ± 0.44
58 | UCUAAGCAAUAUUACGCCGU | -1.72 ± 0.12 | -1.09 ± 0.19
59 | UCUAAGCAAUAUUACGCGUC | -3.36 ± 0.24 | -2.01 ± 0.18
60 | UCUAAGCAAUAUUACGCUGA | -3.56 ± 0.41 | -2.52 ± 0.33
61 | UCUAAGCAAUAUUACGGAGG | -2.49 ± 0.26 | -3.05 ± 0.43
62 | UCUAAGCAAUAUUACGGAUC | -3.37 ± 0.37 | -3.24 ± 0.37
63 | UCUAAGCAAUAUUACGGGGA | -1.76 ± 0.11 | -0.821 ± 0.12
64 | UCUAAGCAAUAUUACGGUAG | -2.09 ± 0.11 | -0.881 ± 0.11
65 | UCUAAGCAAUAUUACGUACC | – | -1.04 ± 0.47
66 | UCUAAGCAAUAUUACGUAGC | -2.23 ± 0.19 | -1.25 ± 0.2
67 | UCUAAGCAAUAUUACGUAUG | -1.95 ± 0.089 | -1.6 ± 0.11
68 | UCUAAGCAAUAUUACGUGAC | -2.88 ± 0.23 | -2.95 ± 0.28
69 | UCUAAGCAAUAUUACGUGAU | -4.27 ± 0.22 | -2.69 ± 0.18
70 | UCUAAGCAAUAUUACGUGCG | -0.493 ± 0.1 | -0.581 ± 0.15
71 | UCUAAGCAAUAUUACGUGGU | -2.45 ± 0.12 | -2 ± 0.14
72 | UCUAAGCAAUAUUACGUUAC | -2.8 ± 0.18 | -2.09 ± 0.26
73 | UCUCAGCAAUAUUACGAAAC | -2.16 ± 0.26 | -2.29 ± 0.5
74 | UCUCAGCAAUAUUACGAAGA | -1.98 ± 0.15 | -1.21 ± 0.15
75 | UCUCAGCAAUAUUACGACUU | -1.63 ± 0.073 | -1.75 ± 0.11
76 | UCUCAGCAAUAUUACGAGGC | – | -1.54 ± 0.36
77 | UCUCAGCAAUAUUACGCCCU | -2.5 ± 0.35 | -2 ± 0.44

Reference: the supplement of paper PMC7877785
